For 1 protein, Km, kcat and kcat/Km results are on record in patent US20250188479A1.

One may read the Km as the substrate concentration at which the rate is half of its maximum. Usually kcat stands for the number of substrate molecules converted per active site and unit of time at saturation. By kcat/Km is commonly meant the turnover number divided by the Michaelis constant.

Substrate in the data set: CC(C)=CCC/C(C)=C/COP(=O)(O)OP(=O)(O)O
The data set can be described thus: purified protein, by the assay type. The note with it: other: purified wildtype RhNUDX1, this study; pH 8.0.

B1: Rosa hybrida (Rosa hybrid cultivar) RhNUDX1, GPP phosphohydrolase, wildtype, UniProt JQ820249, SEQ ID NO: 14 (Rosa hybrid cultivar) (protein)
chain: MGNETVVVAETAGSIKVAVVVCLLRGQNVLLGRRRSSLGDSTFSLPSGHLEFGESFEECAARELKEETDLDIGKIELLTVTNNLFLDEAKPSQYVAVFMRAVLADPRQEPQNIEPEFCDGWGWYEWDNLPKPLFWPLDNVVQDGFNPFPT
As to B1, the Km amounted to 46.4 ± 4.4 µM, the kcat came out at 0.36 s⁻¹ and the catalytic efficiency (kcat/Km) was 7747 ± 1736 M⁻¹ s⁻¹.
